Measured values: patent US20230272029A1, “CO-AGONISTS AT GLP-1 AND GIP RECEPTORS SUITABLE FOR ORAL DELIVERY” (Novo Nordisk A/S, priority 2020, published 2023)
Starred links: 1 amine or outer side, 2 acyl side, 3 side chain; linkers in the order of their positions; H or OH if unused. Non-standard residues stand in square brackets, D forms with d. Groups on a side chain read outwards from the residue. No end group written: not given here. *: point of attachment. C18 diacid = O=C(O)CCCCCCCCCCCCCCCCC(=O)*; γGlu = O=C(O)[C@H](CCC(=O)[*:2])N[*:1]; εLys = N[C@@H](CCCCN[*:1])C(=O)[*:2]; Aib = CC(C)(N)C(=O)O

B1: Compound No. 27 (peptide)
peptide: Y[Aib]EGTFTSDYSILLEK([εLys-εLys-γGlu-C18 diacid])QAAREFIEWLLRGGPSSGAPPPS-OH
modifications: N-terminus assumed
SMILES: CC[C@H](C)[C@H](NC(=O)[C@H](Cc1ccccc1)NC(=O)[C@H](CCC(=O)O)NC(=O)[C@H](CCCNC(=N)N)NC(=O)[C@H](C)NC(=O)[C@H](C)NC(=O)[C@H](CCC(N)=O)NC(=O)[C@H](CCCCNC(=O)[C@@H](N)CCCCNC(=O)[C@@H](N)CCCCNC(=O)CC[C@H](NC(=O)CCCCCCCCCCCCCCCCC(=O)O)C(=O)O)NC(=O)[C@H](CCC(=O)O)NC(=O)[C@H](CC(C)C)NC(=O)[C@H](CC(C)C)NC(=O)[C@@H](NC(=O)[C@H](CO)NC(=O)[C@H](Cc1ccc(O)cc1)NC(=O)[C@H](CC(=O)O)NC(=O)[C@H](CO)NC(=O)[C@@H](NC(=O)[C@H](Cc1ccccc1)NC(=O)[C@@H](NC(=O)CNC(=O)[C@H](CCC(=O)O)NC(=O)C(C)(C)NC(=O)[C@@H](N)Cc1ccc(O)cc1)[C@@H](C)O)[C@@H](C)O)[C@@H](C)CC)C(=O)N[C@@H](CCC(=O)O)C(=O)N[C@@H](Cc1c[nH]c2ccccc12)C(=O)N[C@@H](CC(C)C)C(=O)N[C@@H](CC(C)C)C(=O)N[C@@H](CCCNC(=N)N)C(=O)NCC(=O)NCC(=O)N1CCC[C@H]1C(=O)N[C@@H](CO)C(=O)N[C@@H](CO)C(=O)NCC(=O)N[C@@H](C)C(=O)N1CCC[C@H]1C(=O)N1CCC[C@H]1C(=O)N1CCC[C@H]1C(=O)N[C@@H](CO)C(=O)O
B2: Compound No. 28 (peptide)
peptide: Y[Aib]EGTFTSDYSILLEK([εLys-εLys-γGlu-C18 diacid])QAAREFIEWLLRGGPESGAPPPS-OH
modifications: N-terminus assumed
SMILES: CC[C@H](C)[C@H](NC(=O)[C@H](Cc1ccccc1)NC(=O)[C@H](CCC(=O)O)NC(=O)[C@H](CCCNC(=N)N)NC(=O)[C@H](C)NC(=O)[C@H](C)NC(=O)[C@H](CCC(N)=O)NC(=O)[C@H](CCCCNC(=O)[C@@H](N)CCCCNC(=O)[C@@H](N)CCCCNC(=O)CC[C@H](NC(=O)CCCCCCCCCCCCCCCCC(=O)O)C(=O)O)NC(=O)[C@H](CCC(=O)O)NC(=O)[C@H](CC(C)C)NC(=O)[C@H](CC(C)C)NC(=O)[C@@H](NC(=O)[C@H](CO)NC(=O)[C@H](Cc1ccc(O)cc1)NC(=O)[C@H](CC(=O)O)NC(=O)[C@H](CO)NC(=O)[C@@H](NC(=O)[C@H](Cc1ccccc1)NC(=O)[C@@H](NC(=O)CNC(=O)[C@H](CCC(=O)O)NC(=O)C(C)(C)NC(=O)[C@@H](N)Cc1ccc(O)cc1)[C@@H](C)O)[C@@H](C)O)[C@@H](C)CC)C(=O)N[C@@H](CCC(=O)O)C(=O)N[C@@H](Cc1c[nH]c2ccccc12)C(=O)N[C@@H](CC(C)C)C(=O)N[C@@H](CC(C)C)C(=O)N[C@@H](CCCNC(=N)N)C(=O)NCC(=O)NCC(=O)N1CCC[C@H]1C(=O)N[C@@H](CCC(=O)O)C(=O)N[C@@H](CO)C(=O)NCC(=O)N[C@@H](C)C(=O)N1CCC[C@H]1C(=O)N1CCC[C@H]1C(=O)N1CCC[C@H]1C(=O)N[C@@H](CO)C(=O)O
B3: Compound No. 29 (peptide)
peptide: Y[Aib]EGTFTSDYSILLEK([εLys-εLys-γGlu-C18 diacid])QAAQEFIEWLLAGGPSSGAPPPS-OH
modifications: N-terminus assumed
SMILES: CC[C@H](C)[C@H](NC(=O)[C@H](Cc1ccccc1)NC(=O)[C@H](CCC(=O)O)NC(=O)[C@H](CCC(N)=O)NC(=O)[C@H](C)NC(=O)[C@H](C)NC(=O)[C@H](CCC(N)=O)NC(=O)[C@H](CCCCNC(=O)[C@@H](N)CCCCNC(=O)[C@@H](N)CCCCNC(=O)CC[C@H](NC(=O)CCCCCCCCCCCCCCCCC(=O)O)C(=O)O)NC(=O)[C@H](CCC(=O)O)NC(=O)[C@H](CC(C)C)NC(=O)[C@H](CC(C)C)NC(=O)[C@@H](NC(=O)[C@H](CO)NC(=O)[C@H](Cc1ccc(O)cc1)NC(=O)[C@H](CC(=O)O)NC(=O)[C@H](CO)NC(=O)[C@@H](NC(=O)[C@H](Cc1ccccc1)NC(=O)[C@@H](NC(=O)CNC(=O)[C@H](CCC(=O)O)NC(=O)C(C)(C)NC(=O)[C@@H](N)Cc1ccc(O)cc1)[C@@H](C)O)[C@@H](C)O)[C@@H](C)CC)C(=O)N[C@@H](CCC(=O)O)C(=O)N[C@@H](Cc1c[nH]c2ccccc12)C(=O)N[C@@H](CC(C)C)C(=O)N[C@@H](CC(C)C)C(=O)N[C@@H](C)C(=O)NCC(=O)NCC(=O)N1CCC[C@H]1C(=O)N[C@@H](CO)C(=O)N[C@@H](CO)C(=O)NCC(=O)N[C@@H](C)C(=O)N1CCC[C@H]1C(=O)N1CCC[C@H]1C(=O)N1CCC[C@H]1C(=O)N[C@@H](CO)C(=O)O
B4: Compound No. 3 (peptide)
peptide: Y[Aib]EGTFTSDYSYYLEK([εLys-εLys-γGlu-C18 diacid])QAAQEFVNWLLAGGPSSGAPPPS-NH2
modifications: N-terminus assumed
SMILES: CC(C)C[C@H](NC(=O)[C@H](CC(C)C)NC(=O)[C@H](Cc1c[nH]c2ccccc12)NC(=O)[C@H](CC(N)=O)NC(=O)[C@@H](NC(=O)[C@H](Cc1ccccc1)NC(=O)[C@H](CCC(=O)O)NC(=O)[C@H](CCC(N)=O)NC(=O)[C@H](C)NC(=O)[C@H](C)NC(=O)[C@H](CCC(N)=O)NC(=O)[C@H](CCCCNC(=O)[C@@H](N)CCCCNC(=O)[C@@H](N)CCCCNC(=O)CC[C@H](NC(=O)CCCCCCCCCCCCCCCCC(=O)O)C(=O)O)NC(=O)[C@H](CCC(=O)O)NC(=O)[C@H](CC(C)C)NC(=O)[C@H](Cc1ccc(O)cc1)NC(=O)[C@H](Cc1ccc(O)cc1)NC(=O)[C@H](CO)NC(=O)[C@H](Cc1ccc(O)cc1)NC(=O)[C@H](CC(=O)O)NC(=O)[C@H](CO)NC(=O)[C@@H](NC(=O)[C@H](Cc1ccccc1)NC(=O)[C@@H](NC(=O)CNC(=O)[C@H](CCC(=O)O)NC(=O)C(C)(C)NC(=O)[C@@H](N)Cc1ccc(O)cc1)[C@@H](C)O)[C@@H](C)O)C(C)C)C(=O)N[C@@H](C)C(=O)NCC(=O)NCC(=O)N1CCC[C@H]1C(=O)N[C@@H](CO)C(=O)N[C@@H](CO)C(=O)NCC(=O)N[C@@H](C)C(=O)N1CCC[C@H]1C(=O)N1CCC[C@H]1C(=O)N1CCC[C@H]1C(=O)N[C@@H](CO)C(N)=O
B5: Compound No. 30 (peptide)
peptide: Y[Aib]EGTFTSDYSILLEK([εLys-εLys-γGlu-C18 diacid])QAAHEFIEWLLAGGPSSGAPPPS-OH
modifications: N-terminus assumed
SMILES: CC[C@H](C)[C@H](NC(=O)[C@H](Cc1ccccc1)NC(=O)[C@H](CCC(=O)O)NC(=O)[C@H](Cc1c[nH]cn1)NC(=O)[C@H](C)NC(=O)[C@H](C)NC(=O)[C@H](CCC(N)=O)NC(=O)[C@H](CCCCNC(=O)[C@@H](N)CCCCNC(=O)[C@@H](N)CCCCNC(=O)CC[C@H](NC(=O)CCCCCCCCCCCCCCCCC(=O)O)C(=O)O)NC(=O)[C@H](CCC(=O)O)NC(=O)[C@H](CC(C)C)NC(=O)[C@H](CC(C)C)NC(=O)[C@@H](NC(=O)[C@H](CO)NC(=O)[C@H](Cc1ccc(O)cc1)NC(=O)[C@H](CC(=O)O)NC(=O)[C@H](CO)NC(=O)[C@@H](NC(=O)[C@H](Cc1ccccc1)NC(=O)[C@@H](NC(=O)CNC(=O)[C@H](CCC(=O)O)NC(=O)C(C)(C)NC(=O)[C@@H](N)Cc1ccc(O)cc1)[C@@H](C)O)[C@@H](C)O)[C@@H](C)CC)C(=O)N[C@@H](CCC(=O)O)C(=O)N[C@@H](Cc1c[nH]c2ccccc12)C(=O)N[C@@H](CC(C)C)C(=O)N[C@@H](CC(C)C)C(=O)N[C@@H](C)C(=O)NCC(=O)NCC(=O)N1CCC[C@H]1C(=O)N[C@@H](CO)C(=O)N[C@@H](CO)C(=O)NCC(=O)N[C@@H](C)C(=O)N1CCC[C@H]1C(=O)N1CCC[C@H]1C(=O)N1CCC[C@H]1C(=O)N[C@@H](CO)C(=O)O
B6: Compound No. 41 (peptide)
peptide: Y[Aib]EGTFTSDYSK([εLys-εLys-γGlu-C18 diacid])YLEEQAAREFINWLLAGGPSSGAPPPS-OH
modifications: N-terminus assumed
SMILES: CC[C@H](C)[C@H](NC(=O)[C@H](Cc1ccccc1)NC(=O)[C@H](CCC(=O)O)NC(=O)[C@H](CCCNC(=N)N)NC(=O)[C@H](C)NC(=O)[C@H](C)NC(=O)[C@H](CCC(N)=O)NC(=O)[C@H](CCC(=O)O)NC(=O)[C@H](CCC(=O)O)NC(=O)[C@H](CC(C)C)NC(=O)[C@H](Cc1ccc(O)cc1)NC(=O)[C@H](CCCCNC(=O)[C@@H](N)CCCCNC(=O)[C@@H](N)CCCCNC(=O)CC[C@H](NC(=O)CCCCCCCCCCCCCCCCC(=O)O)C(=O)O)NC(=O)[C@H](CO)NC(=O)[C@H](Cc1ccc(O)cc1)NC(=O)[C@H](CC(=O)O)NC(=O)[C@H](CO)NC(=O)[C@@H](NC(=O)[C@H](Cc1ccccc1)NC(=O)[C@@H](NC(=O)CNC(=O)[C@H](CCC(=O)O)NC(=O)C(C)(C)NC(=O)[C@@H](N)Cc1ccc(O)cc1)[C@@H](C)O)[C@@H](C)O)C(=O)N[C@@H](CC(N)=O)C(=O)N[C@@H](Cc1c[nH]c2ccccc12)C(=O)N[C@@H](CC(C)C)C(=O)N[C@@H](CC(C)C)C(=O)N[C@@H](C)C(=O)NCC(=O)NCC(=O)N1CCC[C@H]1C(=O)N[C@@H](CO)C(=O)N[C@@H](CO)C(=O)NCC(=O)N[C@@H](C)C(=O)N1CCC[C@H]1C(=O)N1CCC[C@H]1C(=O)N1CCC[C@H]1C(=O)N[C@@H](CO)C(=O)O

Molecular target: human GLP-1 receptor (human, UniProt P43220 24-463)
Assay: cell-based or functional assay

Going from B1 to B2, the “hGLP-1R, CRE Luc 0% HSA EC50 (pM)” value rises from 4.6 pM to 6.2 pM.

First: B3
Second: B4
The “hGLP-1R, CRE Luc 0% HSA EC50 (pM)” value of the first is higher: 16.8 pM for the first, 8.5 pM for the second.

Compared with B5, B6 is lower in “hGLP-1R, CRE Luc 0% HSA EC50 (pM)” value: 7.3 pM for the first, 1.2 pM for the second.

First: B1
Second: B2
The “hGLP-1R, CRE Luc 1% HSA EC50 (pM)” value of the first is lower: 127 pM for the first, 139 pM for the second.

First: B3
Second: B4
The “hGLP-1R, CRE Luc 1% HSA EC50 (pM)” value of the first is lower: 378 pM for the first, 626 pM for the second.

Compared with B5, B6 is lower in “hGLP-1R, CRE Luc 1% HSA EC50 (pM)” value: 268 pM for the first, 31.4 pM for the second.

Molecular target: T1, human GIP receptor (human, UniProt P48546 22-466)
T1 sequence (looked up): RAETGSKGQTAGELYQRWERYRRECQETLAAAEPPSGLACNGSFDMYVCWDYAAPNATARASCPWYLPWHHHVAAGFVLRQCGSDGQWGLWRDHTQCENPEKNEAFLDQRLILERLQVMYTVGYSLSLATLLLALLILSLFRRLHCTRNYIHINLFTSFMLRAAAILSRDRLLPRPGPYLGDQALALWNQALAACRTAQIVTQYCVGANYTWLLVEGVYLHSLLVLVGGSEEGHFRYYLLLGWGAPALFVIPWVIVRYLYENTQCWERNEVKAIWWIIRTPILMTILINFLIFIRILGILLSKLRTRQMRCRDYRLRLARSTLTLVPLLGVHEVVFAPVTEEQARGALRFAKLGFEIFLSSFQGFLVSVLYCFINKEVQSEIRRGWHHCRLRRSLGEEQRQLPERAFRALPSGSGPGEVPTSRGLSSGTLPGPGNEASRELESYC
Assay: cell-based or functional assay

First: B1
Second: B2
The “hGIPR, CRE Luc 0% HSA EC50 (pM)” value of the first is lower: 6.3 pM for the first, 6.6 pM for the second.

First: B3
Second: B4
The “hGIPR, CRE Luc 0% HSA EC50 (pM)” value of the first is lower: 3.8 pM for the first, 6.9 pM for the second.

First: B5
Second: B6
The “hGIPR, CRE Luc 0% HSA EC50 (pM)” value of the first is lower: 3.2 pM for the first, 4.9 pM for the second.

Compared with B1, B2 is lower in “hGIPR, CRE Luc 1% HSA EC50 (pM)” value: 132 pM for the first, 86.5 pM for the second.

Going from B3 to B4, the “hGIPR, CRE Luc 1% HSA EC50 (pM)” value rises from 102 pM to 229 pM.

First: B5
Second: B6
The “hGIPR, CRE Luc 1% HSA EC50 (pM)” value of the first is higher: 185 pM for the first, 79.3 pM for the second.
